Data on 17 molecules can be found in patent US20240116985A1 (published 2024).

The test deals with T1, full-length beta-Catenin (Uniprot ID P35222) (Homo sapiens (Human), UniProt P35222 2-781).
T1 construct: Used full-length in both the FP and the AlphaScreen assay; also called B-Catenin; bCat
T1 sequence: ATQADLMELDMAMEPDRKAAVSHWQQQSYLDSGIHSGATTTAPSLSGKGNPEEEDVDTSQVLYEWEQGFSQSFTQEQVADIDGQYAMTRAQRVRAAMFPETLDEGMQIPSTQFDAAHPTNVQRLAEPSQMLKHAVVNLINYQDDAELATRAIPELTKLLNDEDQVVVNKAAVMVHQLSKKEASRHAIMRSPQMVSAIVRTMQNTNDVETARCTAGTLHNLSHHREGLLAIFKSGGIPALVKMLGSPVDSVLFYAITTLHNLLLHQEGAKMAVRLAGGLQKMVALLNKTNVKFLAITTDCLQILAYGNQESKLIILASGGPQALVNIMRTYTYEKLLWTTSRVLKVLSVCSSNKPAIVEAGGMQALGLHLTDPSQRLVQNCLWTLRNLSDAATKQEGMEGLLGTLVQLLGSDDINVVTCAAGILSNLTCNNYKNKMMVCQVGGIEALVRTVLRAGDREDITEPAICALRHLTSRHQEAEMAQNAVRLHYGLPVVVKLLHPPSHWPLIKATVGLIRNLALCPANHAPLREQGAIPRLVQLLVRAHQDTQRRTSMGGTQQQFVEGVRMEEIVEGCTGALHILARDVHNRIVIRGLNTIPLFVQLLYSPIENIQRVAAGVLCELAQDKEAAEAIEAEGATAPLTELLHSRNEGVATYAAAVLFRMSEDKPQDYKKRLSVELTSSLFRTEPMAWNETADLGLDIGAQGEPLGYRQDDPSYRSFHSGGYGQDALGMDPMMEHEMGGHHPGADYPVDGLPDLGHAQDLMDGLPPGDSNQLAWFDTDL
The test can be described thus: AlphaScreen competition; full-length beta-catenin, biotin-TCF4(10-53) probe. As to the method:
Equal volume of the titrated peptide was added to the plate and incubated for 15 minutes at 20° C. Then 4 uL of donor and 4 uL acceptor beads at 10 ug/mL were added to the plate, for a 16 uL reaction pool and protected from light for 60 minutes at 20° C. prior to read. Reads were performed on a CLARIOstar plate reader (BMG Labtech) in duplicate, and data were fitted to a 1:1 binding model with hill slope using an in-house script. All provided concentrations are final concentrations.

Starred links: 1 amine or outer side, 2 acyl side, 3 side chain; linkers in the order of their positions; H or OH if unused. Positions of bridges follow the written chain, without caps; N, C: chain ends. Non-standard residues stand in square brackets, D forms with d. Primed or numbered codes have the meaning given here. RdN(3) = (R)-4-(((allyloxy)carbonyl)(methyl)amino)-2-amino-2-methylbutanoic acid, stapling residue, C=CCOC(=O)N(C)CC[C@@](C)(N[*:1])C(=O)[*:2]; RdN″ = (R)-4-(((allyloxy)carbonyl)(methyl)amino)-2-amino-2-methylbutanoic acid (stapling residue), C=CCOC(=O)N(C)CC[C@@](C)(N[*:1])C(=O)[*:2]; PyrS″ = (S)-1-((allyloxy)carbonyl)-3-aminopyrrolidine-3-carboxylic acid (stapling residue), C=CCOC(=O)N1CC[C@@](N[*:1])(C(=O)[*:2])C1; RdN = (R)-4-(((allyloxy)carbonyl)(methyl)amino)-2-amino-2-methylbutanoic acid, C=CCOC(=O)N(C)CC[C@@](C)(N[*:1])C(=O)[*:2]; PyrS = (S)-1-((allyloxy)carbonyl)-3-aminopyrrolidine-3-carboxylic acid, C=CCOC(=O)N1CC[C@@](N[*:1])(C(=O)[*:2])C1; Phe(4-CONH2) = NC(=O)c1ccc(C[C@H](N)C(=O)O)cc1; S7 = C[C@@](CCCCCC=[*:3])(N[*:1])C(=O)[*:2]; d(αMeF) = C[C@@](N)(Cc1ccccc1)C(=O)O; 2Pal = N[C@@H](Cc1ccccn1)C(=O)O; 3Pal = N[C@@H](Cc1cccnc1)C(=O)O; 4Pal = N[C@@H](Cc1ccncc1)C(=O)O; R8 = C=CCCCCCC[C@@](C)(N)C(=O)O; Cha = N[C@@H](CC1CCCCC1)C(=O)O; hLeu = CC(C)CC[C@H](N)C(=O)O; S5 = C=CCCC[C@](C)(N)C(=O)O

B1: I-47 (peptide)
peptide: Ac-FD[R8]ADDAAF[S5]AFWQ-NH2
modifications: staple 3-10; also: staple isomer composition: earlier-eluting HPLC peak
notes: Stapled peptide; also called Ac-Phe-Asp-R8-Ala-Asp-Asp-Ala-Ala-Phe-S5-Ala-Phe-Trp-Gln-NH2
As to B1, the EC50 was ≥ 10 µM.

B2: I-85 (peptide)
peptide: Ac-FDA[R8]DDAAFV[PyrS][4Pal]WQ-NH2
modifications: staple 4-11; not fully specified; printed as Ac-Phe-Asp-Ala-R8-Asp-Asp-Ala-Ala-Phe-Val-PyrS-4PyrA-Trp-Gln-NH2
notes: Stapled peptide; also called Ac-Phe-Asp-Ala-R8-Asp-Asp-Ala-Ala-Phe-Val-PyrS-4PyrA-Trp-Gln-NH2
Take B2: the EC50 is ≥ 10 µM.

B3: I-49 (peptide)
peptide: Ac-FD[RdN(3)]ADDAAF[S7]AFWQ-NH2
modifications: staple 3-10; also: earlier-eluting HPLC isomer, E/Z not assigned
notes: Stapled peptide; also called Ac-Phe-Asp-RdN-Ala-Asp-Asp-Ala-Ala-Phe-S7-Ala-Phe-Trp-Gln-NH2
Regarding B3, the EC50 is ≥ 10 µM.

B4: I-81 (peptide)
peptide: Ac-FDA[R8]DDAAFV[PyrS″][2Pal]WQ-NH2
modifications: staple 4-11
notes: Stapled peptide; also called Ac-Phe-Asp-Ala-R8-Asp-Asp-Ala-Ala-Phe-Val-PyrS-2PyrA-Trp-Gln-NH2
As for B4, it took 9.78 µM to reach a half-maximal effect (EC50).

B5: I-83 (peptide)
peptide: Ac-FDA[R8]DDAAFV[PyrS][3Pal]WQ-NH2
modifications: staple 4-11
notes: Stapled peptide; also called Ac-Phe-Asp-Ala-R8-Asp-Asp-Ala-Ala-Phe-Val-PyrS-3PyrA-Trp-Gln-NH2
Consider B5, for which the concentration for a half-maximal effect (EC50) was ≥ 10 µM.

B6: I-70 (peptide)
peptide: Ac-ADI[RdN″]D[hLeu]AAFQ[S7]FWH-NH2
modifications: staple 4-11
notes: Stapled peptide; also called Ac-Ala-Asp-Ile-RdN-Asp-hLeu-Ala-Ala-Phe-Gln-S7-Phe-Trp-His-NH2
Consider B6, for which the EC50 was ≥ 10 µM.

B7: I-48 (peptide)
peptide: FDXADDAAFXAFWQ
modifications: not fully specified; N-terminal Ac; C-terminal NH2; R8 at 3 and S5 at 10, stapled
notes: as for B1
As for B7, the EC50 was ≥ 10 µM.

B8: I-57 (peptide)
peptide: Ac-FDA[R8]D[d(αMeF)]AAFV[PyrS″]FWQ-NH2
modifications: staple 4-11; not fully specified
notes: Stapled peptide; also called Ac-Phe-Asp-Ala-R8-Asp-aMeDF-Ala-Ala-Phe-Val-PyrS-Phe-Trp-Gln-NH2
With B8, the EC50 is ≥ 10 µM.

B9: I-58 (peptide)
peptide: Ac-FDA[R8]DQAAFV[PyrS]FWQ-NH2
modifications: staple 4-11; not fully specified; printed as Ac-Phe-Asp-Ala-R8-Asp-Gln-Ala-Ala-Phe-Val-PyrS-Phe-Trp-Gln-NH2
notes: Stapled peptide; also called Ac-Phe-Asp-Ala-R8-Asp-Gln-Ala-Ala-Phe-Val-PyrS-Phe-Trp-Gln-NH2
With B9, the EC50 is ≥ 10 µM.

B10: I-63 (peptide)
peptide: Ac-FDA[R8]DDAAFV[PyrS]YWQ-NH2
modifications: staple 4-11; not fully specified; printed as Ac-Phe-Asp-Ala-R8-Asp-Asp-Ala-Ala-Phe-Val-PyrS-Tyr-Trp-Gln-NH2
notes: Stapled peptide; also called Ac-Phe-Asp-Ala-R8-Asp-Asp-Ala-Ala-Phe-Val-PyrS-Tyr-Trp-Gln-NH2
Take B10: the EC50 was ≥ 10 µM.

B11: I-59 (peptide)
peptide: Ac-FDA[R8]DQAAFV[PyrS″]FWQ-NH2
modifications: staple 4-11; not fully specified; printed as Ac-Phe-Asp-Ala-R8-Asp-Gln-Ala-Ala-Phe-Val-PyrS-Phe-Trp-Gln-NH2
notes: as for B9
For the molecule B11, the EC50 turned out to be 9.88 µM.

B12: I-62 (peptide)
peptide: Ac-FDA[R8]DDAAFV[PyrS″]YWQ-NH2
modifications: staple 4-11; not fully specified; printed as Ac-Phe-Asp-Ala-R8-Asp-Asp-Ala-Ala-Phe-Val-PyrS-Tyr-Trp-Gln-NH2
notes: as for B10
B12: the EC50 is ≥ 10 µM.

B13: I-74 (peptide)
peptide: Ac-FDA[R8]DDAA[Cha]V[PyrS″]FWQ-NH2
modifications: staple 4-11; not fully specified; printed as Ac-Phe-Asp-Ala-R8-Asp-Asp-Ala-Ala-Cha-Val-PyrS-Phe-Trp-Gln-NH2
notes: Stapled peptide; also called Ac-Phe-Asp-Ala-R8-Asp-Asp-Ala-Ala-Cha-Val-PyrS-Phe-Trp-Gln-NH2
Consider B13, for which the EC50 was ≥ 10 µM.

B14: I-84 (peptide)
peptide: Ac-FDA[R8]DDAAFV[PyrS″][4Pal]WQ-NH2
modifications: staple 4-11; not fully specified; printed as Ac-Phe-Asp-Ala-R8-Asp-Asp-Ala-Ala-Phe-Val-PyrS-4PyrA-Trp-Gln-NH2
notes: as for B2
As for B14, the EC50 is ≥ 10 µM.

B15: I-72 (peptide)
peptide: Ac-ADI[RdN]D[Cha]AAFQ[S7]FWH-NH2
modifications: staple 4-11; not fully specified; printed as Ac-Ala-Asp-Ile-RdN-Asp-Cha-Ala-Ala-Phe-Gln-S7-Phe-Trp-His-NH2
notes: Stapled peptide; also called Ac-Ala-Asp-Ile-RdN-Asp-Cha-Ala-Ala-Phe-Gln-S7-Phe-Trp-His-NH2
Regarding B15, the EC50 is ≥ 10 µM.

B16: I-89 (peptide)
peptide: Ac-FDA[R8]DDAAFV[PyrS″][Phe(4-CONH2)]WQ-NH2
modifications: staple 4-11; not fully specified; printed as Ac-Phe-Asp-Ala-R8-Asp-Asp-Ala-Ala-Phe-Val-PyrS-4CBMF-Trp-Gln-NH2
notes: Stapled peptide; also called Ac-Phe-Asp-Ala-R8-Asp-Asp-Ala-Ala-Phe-Val-PyrS-4CBMF-Trp-Gln-NH2
Consider B16, for which the EC50 came out at 5.64 µM. In other words, the single-digit micromolar range.

B17: I-73 (peptide)
peptide: Ac-ADI[RdN(3)]D[Cha]AAFQ[S7]FWH-NH2
modifications: staple 4-11; not fully specified; printed as Ac-Ala-Asp-Ile-RdN-Asp-Cha-Ala-Ala-Phe-Gln-S7-Phe-Trp-His-NH2
notes: as for B15
B17: the EC50 was ≥ 10 µM.
